From the supplement of paper PMC7877785
± gives the uncertainty stated by the source.

Test: self-splicing fitness, log relative to wild type (ln ratio); higher = more splicing; Tetrahymena group I intron in knt gene, E. coli kanamycin selection, DiMSum; sequences stand for … in CUCUCU…GGAGGGAAAAGUUAUCAGGCAUGCACCUGGUAGCUAGUCUUUAAACCAAUAGAUUGCAUCGGUUUAAAAGGCAAGACCGUCAAAUUGCGGGAAAGGGGUCAACAGCCGUUCAGUACCAAGUCUCAGGGGAAACUUUGAGAUGGCCUUGCAAAGGGUAUGGUAAUAAGCUGACGGACAUGGUCCUAACCACGCAGCCAAGUCCUAAGUCAACAGAUCUUCUGUUGAUAUGGAUGCAGUUCACAGACUAAAUGUCGGUCGGGGAAGAUGUAUUCUUCUCAUAAGAUAUAGUCGGACCUCUCCUUAAUGGGAGCUAGCGGAUGAAGUGAUGCAACACUGGAGCCGCUGGGAACUAAUUUGUAUGCGAAAGUAUAUUGAUUAGUUUUGGAGUACUCGUGGUCG
Summary of the method: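 A randomised library covering all eight P1ex-region intron nucleotides was built with the intron in the knt kanamycin-resistance gene on pET-22b(+) and held in E. coli BL21(DE3). Cells were grown overnight at 37°C or 30°C on LB agar, with or without 25 μg/mL kanamycin, plus 100 μg/mL carbenicillin, 50 μM IPTG and 0.2% rhamnose, and pooled colonies were amplicon-sequenced on an Illumina HiSeq 2500. DiMSum fitness is the error-weighted combination of wild-type-normalised replicate fold changes, kanamycin versus none.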

Row | Sequence | self-splicing fitness (ln) (30 °C) | self-splicing fitness (ln) (37 °C)
1 | GUAAAGCAAUAUUACGUUCA | -0.419 ± 0.072 | 0.177 ± 0.12
2 | AGUAAGCAAUAUUACGAUUG | -2.97 ± 0.29 | -2.54 ± 0.29
3 | CGUAAGCAAUAUUACGGUGA | -3.29 ± 0.17 | -3.18 ± 0.22
4 | AUAGAGCAAUAUUACGUGUG | -1.61 ± 0.1 | -2.39 ± 0.2
5 | UGGAAGCAAUAUUACGUUUG | -0.722 ± 0.082 | -0.645 ± 0.13
6 | UAUCAGCAAUAUUACGCAUU | -1.42 ± 0.076 | -0.197 ± 0.09
7 | AUACAGCAAUAUUACGCAUC | -3.69 ± 0.16 | -2.8 ± 0.21
8 | CCAUAGCAAUAUUACGUCCG | -0.229 ± 0.077 | 0.347 ± 0.13
9 | UCAAAGCAAUAUUACGGCCU | – | -1.28 ± 0.17
10 | UAUCAGCAAUAUUACGGGGU | -3.6 ± 0.2 | -2.48 ± 0.17
11 | CAACAGCAAUAUUACGCCUC | -3.85 ± 0.29 | -1.81 ± 0.18
12 | ACAAAGCAAUAUUACGCACU | -0.0924 ± 0.069 | 0.264 ± 0.089
13 | AGCAAGCAAUAUUACGCCAA | -2.89 ± 0.2 | -1.97 ± 0.14
14 | ACUCAGCAAUAUUACGUGCA | -0.681 ± 0.095 | -0.372 ± 0.11
15 | AAGGAGCAAUAUUACGGCGA | -2.84 ± 0.32 | -0.936 ± 0.3
16 | AAACAGCAAUAUUACGCACC | -0.45 ± 0.084 | -0.254 ± 0.099
17 | AAUUAGCAAUAUUACGCCCU | 0.0273 ± 0.1 | -0.313 ± 0.13
18 | CUCCAGCAAUAUUACGGACA | -0.816 ± 0.14 | -0.868 ± 0.15
19 | CCGCAGCAAUAUUACGAGCG | -2.4 ± 0.12 | -0.494 ± 0.11
20 | UGCAAGCAAUAUUACGUGGG | -3.73 ± 0.17 | -2.93 ± 0.19
21 | CUCGAGCAAUAUUACGCGUU | -3.72 ± 0.31 | -0.305 ± 0.2
22 | UUCGAGCAAUAUUACGGAAU | -3.13 ± 0.18 | -2.87 ± 0.27
23 | AGGGAGCAAUAUUACGUGCG | -2.99 ± 0.2 | -2.4 ± 0.29
24 | ACUCAGCAAUAUUACGUCGA | -3.15 ± 0.25 | -1.94 ± 0.18
25 | GUUCAGCAAUAUUACGACGG | -4.42 ± 0.24 | -3.24 ± 0.37

Row | Sequence | self-splicing fitness (ln) (30 °C) | self-splicing fitness (ln) (37 °C)
26 | CUUCAGCAAUAUUACGGCCG | -0.988 ± 0.16 | -0.154 ± 0.21
27 | AAAGAGCAAUAUUACGCUGU | -3.2 ± 0.15 | -1.88 ± 0.16
28 | GAGCAGCAAUAUUACGUUGG | -0.945 ± 0.19 | -2.43 ± 0.23
29 | ACCAAGCAAUAUUACGUAGC | -3.58 ± 0.13 | -2.44 ± 0.13
30 | GAUAAGCAAUAUUACGGGGA | – | -2.16 ± 0.23
31 | AGAGAGCAAUAUUACGUAUU | -4.03 ± 0.35 | -3.1 ± 0.3
32 | CAGAAGCAAUAUUACGGGAU | -3.18 ± 0.17 | -2.9 ± 0.2
33 | ACGGAGCAAUAUUACGCCAU | -2.63 ± 0.25 | –
34 | AAUUAGCAAUAUUACGAUGA | -0.632 ± 0.094 | -0.429 ± 0.11
35 | UGAUAGCAAUAUUACGCGAC | -3.55 ± 0.28 | –
36 | AACGAGCAAUAUUACGUAGG | -3.93 ± 0.21 | -2.49 ± 0.18
37 | UGGCAGCAAUAUUACGCUAU | -3.89 ± 0.25 | -1.8 ± 0.2
38 | AGGCAGCAAUAUUACGGGGC | -3.89 ± 0.37 | -2.07 ± 0.23
39 | CCUUAGCAAUAUUACGUCUU | -3.66 ± 0.16 | -2.61 ± 0.17
40 | AAACAGCAAUAUUACGCCGA | -1.99 ± 0.087 | -1.35 ± 0.09
41 | UGUCAGCAAUAUUACGAAUG | 0.0484 ± 0.12 | 0.565 ± 0.12
42 | GAGGAGCAAUAUUACGUGAA | -2.45 ± 0.3 | -1.74 ± 0.3
43 | GCGAAGCAAUAUUACGAGCG | -2.04 ± 0.14 | -1.11 ± 0.19
44 | AUAGAGCAAUAUUACGCUAG | -1.01 ± 0.15 | -0.475 ± 0.15
45 | AGUAAGCAAUAUUACGAUGU | -3.05 ± 0.15 | -1.17 ± 0.13
46 | AUGGAGCAAUAUUACGCCCU | -2.84 ± 0.3 | -2.13 ± 0.37
47 | ACUCAGCAAUAUUACGCUGA | -3.74 ± 0.3 | -3.15 ± 0.34
48 | AAACAGCAAUAUUACGAUUG | -3.35 ± 0.12 | -1.76 ± 0.12
49 | UGUGAGCAAUAUUACGCCGG | -3.85 ± 0.25 | -1.98 ± 0.33
